{"source": "the supplement of paper PMC9112550", "about": "“Optimization of the antimicrobial peptide Bac7 by deep mutational scanning” (BMC Biology, 2022);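 also: peptides expressed intracellularly from a pBAD plasmid library in pooled LB shake-flask culture, induced with 0.3% L-arabinose, DNA abundance read by NGS, three biological replicates, DESeq2 with apeglm shrinkage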", "data": [{"test_system": "Escherichia coli TOP10", "experiment": "shrunken log2 fold change of peptide-encoding DNA abundance (4.5 h post-induction vs induction); higher = less antimicrobial activity (less host growth inhibition)", "conditions": "time post-induction: 4.5 h; library: site-saturation at positions 5, 18, 19, 20", "values": [{"sequence": "RRIRIRPPRLPRPRPRPYNQPRP", "shrunken log2 fold change": -1.01}, {"sequence": "RRIRIRPPRLPRPRPRPYNRPRP", "shrunken log2 fold change": -0.01}, {"sequence": "RRIRIRPPRLPRPRPRPYPFPRP", "shrunken log2 fold change": -0.38}, {"sequence": "RRIRIRPPRLPRPRPRPYQWPRP", "shrunken log2 fold change": -0.316}, {"sequence": "RRIRIRPPRLPRPRPRPYREPRP", "shrunken log2 fold change": -0.0673}, {"sequence": "RRIRIRPPRLPRPRPRPYTAPRP", "shrunken log2 fold change": -1.28}, {"sequence": "RRIRIRPPRLPRPRPRPYTLPRP", "shrunken log2 fold change": -0.478}, {"sequence": "RRIRIRPPRLPRPRPRPYTYPRP", "shrunken log2 fold change": -0.705}, {"sequence": "RRIRIRPPRLPRPRPRPYVEPRP", "shrunken log2 fold change": -0.0566}, {"sequence": "RRIRIRPPRLPRPRPRPYWKPRP", "shrunken log2 fold change": -0.0289}, {"sequence": "RRIRIRPPRLPRPRPRPYYMPRP", "shrunken log2 fold change": -0.983}, {"sequence": "RRIRIRPPRLPRPRPRPYYVPRP", "shrunken log2 fold change": -0.481}, {"sequence": "RRIRKRPPRLPRPRPRPACVPRP", "shrunken log2 fold change": 0.735}, {"sequence": "RRIRKRPPRLPRPRPRPADVPRP", "shrunken log2 fold change": 0.127}, {"sequence": "RRIRKRPPRLPRPRPRPADWPRP", "shrunken log2 fold change": 0.666}, {"sequence": "RRIRKRPPRLPRPRPRPAEHPRP", "shrunken log2 fold change": 0.12}, {"sequence": "RRIRKRPPRLPRPRPRPAERPRP", "shrunken log2 fold change": 0.123}, {"sequence": "RRIRKRPPRLPRPRPRPAFMPRP", "shrunken log2 fold change": 0.341}, {"sequence": "RRIRKRPPRLPRPRPRPAFVPRP", "shrunken log2 fold change": 0.423}, {"sequence": "RRIRKRPPRLPRPRPRPAGMPRP", "shrunken log2 fold change": 0.042}, {"sequence": "RRIRKRPPRLPRPRPRPAHCPRP", "shrunken log2 fold change": -0.0571}, {"sequence": "RRIRKRPPRLPRPRPRPAHMPRP", "shrunken log2 fold change": 0.686}, {"sequence": "RRIRKRPPRLPRPRPRPAKKPRP", "shrunken log2 fold change": 1.06}, {"sequence": "RRIRKRPPRLPRPRPRPAQFPRP", "shrunken log2 fold change": 0.258}, {"sequence": "RRIRKRPPRLPRPRPRPAQMPRP", "shrunken log2 fold change": 0.139}, {"sequence": "RRIRKRPPRLPRPRPRPAQQPRP", "shrunken log2 fold change": 0.344}, {"sequence": "RRIRKRPPRLPRPRPRPAREPRP", "shrunken log2 fold change": 0.89}, {"sequence": "RRIRKRPPRLPRPRPRPARSPRP", "shrunken log2 fold change": 0.89}, {"sequence": "RRIRKRPPRLPRPRPRPARTPRP", "shrunken log2 fold change": 0.476}, {"sequence": "RRIRKRPPRLPRPRPRPARWPRP", "shrunken log2 fold change": 0.464}, {"sequence": "RRIRKRPPRLPRPRPRPASHPRP", "shrunken log2 fold change": 0.442}, {"sequence": "RRIRKRPPRLPRPRPRPASVPRP", "shrunken log2 fold change": 0.291}, {"sequence": "RRIRKRPPRLPRPRPRPATPPRP", "shrunken log2 fold change": 0.939}, {"sequence": "RRIRKRPPRLPRPRPRPAVFPRP", "shrunken log2 fold change": 0.271}, {"sequence": "RRIRKRPPRLPRPRPRPCAPPRP", "shrunken log2 fold change": 0.436}, {"sequence": "RRIRKRPPRLPRPRPRPCDTPRP", "shrunken log2 fold change": 0.015}, {"sequence": "RRIRKRPPRLPRPRPRPCDWPRP", "shrunken log2 fold change": -0.0282}, {"sequence": "RRIRKRPPRLPRPRPRPCFDPRP", "shrunken log2 fold change": 0.0357}, {"sequence": "RRIRKRPPRLPRPRPRPCFVPRP", "shrunken log2 fold change": -0.0847}, {"sequence": "RRIRKRPPRLPRPRPRPCKHPRP", "shrunken log2 fold change": -0.11}, {"sequence": "RRIRKRPPRLPRPRPRPCKQPRP", "shrunken log2 fold change": 0.0173}, {"sequence": "RRIRKRPPRLPRPRPRPCLAPRP", "shrunken log2 fold change": 0.433}, {"sequence": "RRIRKRPPRLPRPRPRPCLIPRP", "shrunken log2 fold change": -0.36}, {"sequence": "RRIRKRPPRLPRPRPRPCLNPRP", "shrunken log2 fold change": 0.00932}, {"sequence": "RRIRKRPPRLPRPRPRPCLWPRP", "shrunken log2 fold change": 0.0613}, {"sequence": "RRIRKRPPRLPRPRPRPCMRPRP", "shrunken log2 fold change": 0.0327}, {"sequence": "RRIRKRPPRLPRPRPRPCNHPRP", "shrunken log2 fold change": -0.16}, {"sequence": "RRIRKRPPRLPRPRPRPCPAPRP", "shrunken log2 fold change": 0.17}, {"sequence": "RRIRKRPPRLPRPRPRPCQAPRP", "shrunken log2 fold change": 0.157}, {"sequence": "RRIRKRPPRLPRPRPRPCREPRP", "shrunken log2 fold change": 0.368}, {"sequence": "RRIRKRPPRLPRPRPRPCTGPRP", "shrunken log2 fold change": 0.0143}, {"sequence": "RRIRKRPPRLPRPRPRPCTIPRP", "shrunken log2 fold change": -0.204}, {"sequence": "RRIRKRPPRLPRPRPRPCWNPRP", "shrunken log2 fold change": -0.228}, {"sequence": "RRIRKRPPRLPRPRPRPCYHPRP", "shrunken log2 fold change": -0.339}, {"sequence": "RRIRKRPPRLPRPRPRPDDPPRP", "shrunken log2 fold change": 0.237}, {"sequence": "RRIRKRPPRLPRPRPRPDECPRP", "shrunken log2 fold change": -0.0821}, {"sequence": "RRIRKRPPRLPRPRPRPDFHPRP", "shrunken log2 fold change": -0.312}, {"sequence": "RRIRKRPPRLPRPRPRPDGNPRP", "shrunken log2 fold change": 0.00833}, {"sequence": "RRIRKRPPRLPRPRPRPDHCPRP", "shrunken log2 fold change": 0.00904}, {"sequence": "RRIRKRPPRLPRPRPRPDHQPRP", "shrunken log2 fold change": -0.0497}, {"sequence": "RRIRKRPPRLPRPRPRPDIDPRP", "shrunken log2 fold change": 2.44}, {"sequence": "RRIRKRPPRLPRPRPRPDIRPRP", "shrunken log2 fold change": 0.0731}, {"sequence": "RRIRKRPPRLPRPRPRPDKMPRP", "shrunken log2 fold change": -0.48}, {"sequence": "RRIRKRPPRLPRPRPRPDLNPRP", "shrunken log2 fold change": 0.332}, {"sequence": "RRIRKRPPRLPRPRPRPDLTPRP", "shrunken log2 fold change": -0.000918}, {"sequence": "RRIRKRPPRLPRPRPRPDLWPRP", "shrunken log2 fold change": 0.123}, {"sequence": "RRIRKRPPRLPRPRPRPDPHPRP", "shrunken log2 fold change": -0.0362}, {"sequence": "RRIRKRPPRLPRPRPRPDPIPRP", "shrunken log2 fold change": 0.129}, {"sequence": "RRIRKRPPRLPRPRPRPDPMPRP", "shrunken log2 fold change": 0.86}, {"sequence": "RRIRKRPPRLPRPRPRPDRIPRP", "shrunken log2 fold change": -0.00844}, {"sequence": "RRIRKRPPRLPRPRPRPDSEPRP", "shrunken log2 fold change": -0.0164}, {"sequence": "RRIRKRPPRLPRPRPRPDSIPRP", "shrunken log2 fold change": -0.0839}, {"sequence": "RRIRKRPPRLPRPRPRPDSMPRP", "shrunken log2 fold change": 0.0692}, {"sequence": "RRIRKRPPRLPRPRPRPDSRPRP", "shrunken log2 fold change": -0.188}, {"sequence": "RRIRKRPPRLPRPRPRPDSWPRP", "shrunken log2 fold change": 0.0425}, {"sequence": "RRIRKRPPRLPRPRPRPDTKPRP", "shrunken log2 fold change": -0.0643}, {"sequence": "RRIRKRPPRLPRPRPRPDWAPRP", "shrunken log2 fold change": -0.0624}, {"sequence": "RRIRKRPPRLPRPRPRPDWTPRP", "shrunken log2 fold change": 1.54}, {"sequence": "RRIRKRPPRLPRPRPRPDYRPRP", "shrunken log2 fold change": -0.157}, {"sequence": "RRIRKRPPRLPRPRPRPEAAPRP", "shrunken log2 fold change": 1.8}, {"sequence": "RRIRKRPPRLPRPRPRPEAMPRP", "shrunken log2 fold change": 0.0888}, {"sequence": "RRIRKRPPRLPRPRPRPEASPRP", "shrunken log2 fold change": 0.497}, {"sequence": "RRIRKRPPRLPRPRPRPEAVPRP", "shrunken log2 fold change": 0.15}, {"sequence": "RRIRKRPPRLPRPRPRPEEEPRP", "shrunken log2 fold change": 0.0391}, {"sequence": "RRIRKRPPRLPRPRPRPEKAPRP", "shrunken log2 fold change": 0.0283}, {"sequence": "RRIRKRPPRLPRPRPRPELIPRP", "shrunken log2 fold change": 0.0174}, {"sequence": "RRIRKRPPRLPRPRPRPELKPRP", "shrunken log2 fold change": 0.978}, {"sequence": "RRIRKRPPRLPRPRPRPELSPRP", "shrunken log2 fold change": 0.0277}, {"sequence": "RRIRKRPPRLPRPRPRPEMEPRP", "shrunken log2 fold change": 3.59}, {"sequence": "RRIRKRPPRLPRPRPRPEMIPRP", "shrunken log2 fold change": 0.0131}, {"sequence": "RRIRKRPPRLPRPRPRPEMPPRP", "shrunken log2 fold change": 0.668}, {"sequence": "RRIRKRPPRLPRPRPRPEMSPRP", "shrunken log2 fold change": 0.325}, {"sequence": "RRIRKRPPRLPRPRPRPENDPRP", "shrunken log2 fold change": -0.0386}, {"sequence": "RRIRKRPPRLPRPRPRPENMPRP", "shrunken log2 fold change": 0.11}, {"sequence": "RRIRKRPPRLPRPRPRPENPPRP", "shrunken log2 fold change": 0.126}, {"sequence": "RRIRKRPPRLPRPRPRPEPMPRP", "shrunken log2 fold change": 0.504}, {"sequence": "RRIRKRPPRLPRPRPRPEQHPRP", "shrunken log2 fold change": 0.586}, {"sequence": "RRIRKRPPRLPRPRPRPEQRPRP", "shrunken log2 fold change": 0.431}, {"sequence": "RRIRKRPPRLPRPRPRPERCPRP", "shrunken log2 fold change": 0.559}, {"sequence": "RRIRKRPPRLPRPRPRPESNPRP", "shrunken log2 fold change": 1.13}, {"sequence": "RRIRKRPPRLPRPRPRPETAPRP", "shrunken log2 fold change": 1.21}, {"sequence": "RRIRKRPPRLPRPRPRPEVGPRP", "shrunken log2 fold change": 1.29}, {"sequence": "RRIRKRPPRLPRPRPRPEWCPRP", "shrunken log2 fold change": 0.278}, {"sequence": "RRIRKRPPRLPRPRPRPEWGPRP", "shrunken log2 fold change": 0.755}, {"sequence": "RRIRKRPPRLPRPRPRPEWSPRP", "shrunken log2 fold change": 0.0885}, {"sequence": "RRIRKRPPRLPRPRPRPEYKPRP", "shrunken log2 fold change": 0.0908}, {"sequence": "RRIRKRPPRLPRPRPRPFACPRP", "shrunken log2 fold change": -0.0138}, {"sequence": "RRIRKRPPRLPRPRPRPFAKPRP", "shrunken log2 fold change": 0.0238}, {"sequence": "RRIRKRPPRLPRPRPRPFCVPRP", "shrunken log2 fold change": 0.706}]}]}
